Measurements published in patent US20230129812A1, “COMPOSITIONS AND METHODS FOR TREATING PULMONARY HYPERTENSION” (Acceleron Pharma Inc., priority 2020, published 2023).

Experiments:
[1] = biological target: T1, activin A (Homo sapiens, UniProt P08476); assay: A-204 reporter gene assay, pGL3(CAGA)12 luciferase; assay type: cell-based; conditions: A-204 reporter gene assay
T1 sequence (P08476 311-426): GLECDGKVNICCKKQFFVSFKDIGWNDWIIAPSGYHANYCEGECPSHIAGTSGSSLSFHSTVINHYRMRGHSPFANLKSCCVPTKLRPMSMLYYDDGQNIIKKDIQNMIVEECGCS
Summary of the method: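 Human rhabdomyosarcoma A-204 cells transfected with SMAD-responsive pGL3(CAGA)12 luciferase reporter (optionally with pRLCMV). Ligand in medium + 0.1% BSA, preincubated ~1 h with Fc-fusion inhibitor before addition to cells; after ~6 h cells lysed and luciferase activity measured.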

[2] = biological target: T2, GDF8 (Homo sapiens, UniProt O14793); assay: A-204 reporter gene assay, pGL3(CAGA)12 luciferase; assay type: cell-based
T2 sequence (O14793 267-375): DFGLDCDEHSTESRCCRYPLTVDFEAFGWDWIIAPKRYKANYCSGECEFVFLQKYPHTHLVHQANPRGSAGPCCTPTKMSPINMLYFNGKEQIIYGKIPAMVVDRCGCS
Text: An A-204 reporter gene assay was used to evaluate the effects of ActRIIB-Fc proteins and ActRIIB variant Fc fusion polypeptides on signaling by GDF-11 and activin A. Cell line: human rhabdomyosarcoma (derived from muscle). Reporter vector: pGL3(CAGA)12 (described in Dennler et al, 1998, EMBO 17: 3091-3100). The CAGA12 motif is present in TGF-beta responsive genes (e.g., PAI-1 gene), so this vector is of general use for factors signaling through SMADs.
Day 1: Split A-204 cells into 48-well plate.
Day 2: A-204 cells transfected with 10 ug pGL3(CAGA)12 or pGL3(CAGA)12(10 ug)+pRLCMV (1 pg) and Fugene.
Day 3: Add factors (diluted into medium+0.1% BSA). Inhibitors need to be preincubated with factors for 1 hr before adding to cells. Six hrs later, cells were rinsed with PBS and lysed.
This is followed by a luciferase assay.
As described below, ActRIIB variants were also tested in this assay.
In addition, an A-204 Reporter Gene Assay was used to evaluate the effects of ALK4-Fc:ActRIIB-Fc heterodimer and ActRIIB-Fc:ActRIIB-Fc homodimer on signaling by activin A, activin B, GDF11, GDF8, BMP10, and BMP9. Cell line: Human Rhabdomyosarcoma (derived from muscle). Reporter vector: pGL3(CAGA)12 (as described in Dennler et al, 1998, EMBO 17: 3091-3100). The CAGA12 motif is present in TGFβ responsive genes (PAI-1 gene), so this vector is of general use for factors signaling through Smads. An exemplary A-204 Reporter Gene Assay is outlined below. • Day 1: Split A-204 cells into 48-well plate. • Day 2: A-204 cells transfected with 10 ug pGL3(CAGA)12 or pGL3(CAGA)12(10 ug)+pRLCMV (1 ug) and Fugene. • Day 3: Add factors (diluted into medium+0.1% BSA). Inhibitors need to be pre-incubated with Factors for about one hr before adding to cells. About six hrs later, cells are rinsed with PBS and then lysed.
Following the above steps, a Luciferase assay was performed.

[3] = tested on: rat model of pulmonary arterial hypertension (PAH), monocrotaline-induced; assay: Monocrotaline (MCT) rat model of pulmonary arterial hypertension; assay type: in vivo, Sprague Dawley rats; conditions: MCT rats, compared to monocrotaline treated rats (vehicle)
Description: The effects of an ActRIIA-mFc fusion protein (ActRIIA-mFc homodimer as described in Example 1), an ALK4-Fc-ActRIIB-Fc heterodimer (as described in Examples 12 and 13), and sildenafil (a phosphodiesterase-5 inhibitor approved for the treatment of PAH) were examined in a rat model of pulmonary arterial hypertension (PAH). In this model, Sprague Dawley rats received a […] injection of monocrotaline (MCT) to induce PAH 24 hours prior to start of therapy.
Rats were separated into different treatment groups (10 mice per group): 1) treatment with MCT (60 mg/kg administered i.p. as a single dose at day 1 of study) and Tris buffered saline (i.p. as 1 ml/kg, every three days) (vehicle treatment group), 2) treatment with an ActRIIA-mFc polypeptide (10 mg/kg administered i.p. every three days) and MCT (60 mg/kg administered i.p. as a single dose at day 1 of study), 3) treatment with an ALK4-Fc:ActRIIB-Fc heterodimer (10 mg/kg administered i.p. every three days) and MCT (60 mg/kg administered i.p. as a single dose at day 1 of study), 4) treatment with sildenafil (30 mg/kg administered orally twice daily) and MCT (60 mg/kg administered i.p. as a single dose at day 1 of study), and 5) control rats (Tris buffered saline administered i.p. as 1 ml/kg, every three days). Rats were treated for 28 days. Body weights were recorded prior to first dose on Day 1 and then weekly throughout the study.
On day 28, rats were anesthetized by an intraperitoneal injection of ketamine/xylazine (80/10 mg/kg). An incision was made in the neck, and a jugular vein was isolated and ligated anteriorly. A fluid-filled pressure catheter was introduced into the right jugular vein to measure pulmonary artery pressure (PAP). Another incision was made in the inguinal region, and femoral artery was isolated and ligated anteriorly. […] Mean arterial pressure and right PAP were monitored using the Notocord HEM (Croissy sur Seine, Frnace) v3.5 data capture system for approximately 5-10 minutes until stable measurements were obtained. During the measurements, rats were maintained at approximately 37° C. on a heating pad and body temperature was monitored throughout the procedure with a rectal temperature probe. […] Hypertrophy was assessed, in part, by calculating RV/LV+S. The lungs were also weighed.
Similar trends were observed on vessel muscularity based on histopathologic scoring. […] Pulmonary arterioles from vehicle treated rats were determined to be 62.3% completely muscularized, 36.4% partially muscularized, and 1.4% non-muscularized. […] Histopathological scoring of smooth muscle hypertrophy of pulmonary arterioles were also recorded as follows: 0 (normal), 1 (minimal), 2 (mild), 3 (moderate), or 4 (marked).

B1: ALK4-Fc:ActRIIB-Fc heterodimer: heteromeric complex of extracellular domains of human ActRIIB and human ALK4, each separately fused to an Fc domain with a linker (protein)
chain 1: GRGEAETRECIYYNANWELERTNQSGLERCEGEQDKRLHCYASWRNSSGTIELVKKGCWLDDFNCYDRQECVATEENPQVYFCCCEGNFCNERFTHLPEAGGPEVTYEPPPTAPTGGGTHTCPPCPAPELLGGPSVFLFPPKPKDTLMISRTPEVTCVVVDVSHEDPEVKFNWYVDGVEVHNAKTKPREEQYNSTYRVVSVLTVLHQDWLNGKEYKCKVSNKALPAPIEKTISKAKGQPREPQVYTLPPSRKEMTKNQVSLTCLVKGFYPSDIAVEWESNGQPENNYKTTPPVLKSDGSFFLYSKLTVDKSRWQQGNVFSCSVMHEALHNHYTQKSLSLSPGK
chain 2: SGPRGVQALLCACTSCLQANYTCETDGACMVSIFNLDGMEHHVRTCIPKVELVPAGKPFYCLSSEDLRNTHCCYTDYCNRIDLRVPSGHLKEPEHPSMWGPVETGGGTHTCPPCPAPELLGGPSVFLFPPKPKDTLMISRTPEVTCVVVDVSHEDPEVKFNWYVDGVEVHNAKTKPREEQYNSTYRVVSVLTVLHQDWLNGKEYKCKVSNKALPAPIEKTISKAKGQPREPQVYTLPPSREEMTKNQVSLTCLVKGFYPSDIAVEWESNGQPENNYDTTPPVLDSDGSFFLYSDLTVDKSRWQQGNVFSCSVMHEALHNHYTQKSLSLSPG
inhibition of activin A signaling [1]: potent inhibitors | inhibition of GDF8 signaling [2]: potent inhibitors | improvement in body weight ([3]; 28 days): +5.1% | decrease of right heart hypertrophy ([3]; day 28, RV/LV+S): 39.6% | decrease of lung weight ([3]; day 28): 19.0% | reduction of elevated PAP ([3]; day 28): 44.6%
